The text below walks through data of US20100298539A1.

For experiment [1], the target named is CD88-N-term peptide ABCF-1 (biotinylated C5aR peptide) (UniProt P21730). Briefly: C5aR peptide ELISA, lysate.
For experiment [2] the target is unchanged. Nature of the experiment: C5aR peptide ELISA.
The target in experiment [3] is human C5a receptor (C5aR) (human) (UniProt P21730). Nature of the experiment: dual fMLP-F/α-C5aR-PE flow cytometry on neutrophils.
Experiment [4] has the same target. Briefly: flow cytometry on U937/C5aR cells, 2H7 detection.
Experiment [5] shares this target.

Several values for one entry are separate records, joined by “and”; a condition that tells them apart may be missing. Equal entries are not always repeated.

Chain of CD88-N-term peptide ABCF-1 (biotinylated C5aR peptide) (P21730 7-28 limits assumed): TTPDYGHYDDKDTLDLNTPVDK
Chain of human C5a receptor (C5aR) (human) (P21730 whole entry): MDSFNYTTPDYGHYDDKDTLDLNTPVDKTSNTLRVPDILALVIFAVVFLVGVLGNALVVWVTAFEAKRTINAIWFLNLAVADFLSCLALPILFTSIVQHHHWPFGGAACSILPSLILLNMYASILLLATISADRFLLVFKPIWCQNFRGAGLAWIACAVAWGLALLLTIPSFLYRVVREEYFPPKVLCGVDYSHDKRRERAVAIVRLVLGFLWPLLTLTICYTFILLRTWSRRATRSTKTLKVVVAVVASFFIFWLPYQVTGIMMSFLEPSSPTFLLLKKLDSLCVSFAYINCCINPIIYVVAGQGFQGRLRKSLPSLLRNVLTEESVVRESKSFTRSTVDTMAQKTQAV

Turning to “CHIPS E67A (from UniProt A6QIG7 29-149) (other; other documents disagree on this pair)”, the pept-ELISA bindn (%) in experiment [1] is 52% and 39%.

For the substance “CHIPS G33A (from UniProt A6QIG7 29-149) (other; other documents disagree on this pair)”, in experiment [1], the pept-ELISA bindn (%) came out at 13%.

Take “CHIPS G52A (from UniProt A6QIG7 29-149) (other; other documents disagree on this pair)”: the pept-ELISA bindn (%) in experiment [1] is 19% and 20%.

For “CHIPS K69A control (lysate), A6QIG7 29-140”, in experiment [1], the Abs 492 nm is 1.41 and 1.39; the Pep. bind. was 126 ng/mL and 120 ng/mL; the Pep. bind. Log (ng/ml) is 2.1 log ng/ml and 2.08 log ng/ml; the Spec. activity pep/expr (%) is 116% and 112%. The same substance registered a pept-ELISA bindn (%) in experiment [1] of 15%. In addition, the specific activity (%) in experiment [2] came to 116%.

With “CHIPS L34A (from UniProt A6QIG7 29-149) (other; other documents disagree on this pair)”, the pept-ELISA bindn (%) in experiment [1] was 13% and 12%.

For “CHIPS L76A (from UniProt A6QIG7 29-149) (other; other documents disagree on this pair)”, in experiment [1], the pept-ELISA bindn (%) is 1% and 2%.

Consider “CHIPS L90A (from UniProt A6QIG7 29-149) (other; other documents disagree on this pair)”, for which, in experiment [1], the pept-ELISA bindn (%) is 25% and 24%.

On to “CHIPS N31A (from UniProt A6QIG7 29-149) (other; other documents disagree on this pair)”, for which the pept-ELISA bindn (%) in experiment [1] is 16% and 23%.

Take “CHIPS N55A (from UniProt A6QIG7 29-149) (other; other documents disagree on this pair)”: the pept-ELISA bindn (%) in experiment [1] was 8% and 9%.

“CHIPS P35A (from UniProt A6QIG7 29-149) (other; other documents disagree on this pair)”: the pept-ELISA bindn (%) in experiment [1] is 54% and 68%.

Take “CHIPS P79A (from UniProt A6QIG7 29-149) (other; other documents disagree on this pair)”: in experiment [1], the pept-ELISA bindn (%) was 28% and 25%.

For “CHIPS Q58A (from UniProt A6QIG7 29-149) (other; other documents disagree on this pair)”, in experiment [1], the pept-ELISA bindn (%) was 2% and 3%.

In experiment [1], “CHIPS S32A (from UniProt A6QIG7 29-149) (other; other documents disagree on this pair)” had a pept-ELISA bindn (%) of 15%.

Consider “CHIPS S56A (from UniProt A6QIG7 29-149) (other; other documents disagree on this pair)”, for which the pept-ELISA bindn (%) in experiment [1] was 18% and 16%.

“CHIPS S107A (from UniProt A6QIG7 29-149) (other; other documents disagree on this pair)” had a pept-ELISA bindn (%) in experiment [1] of 11%.

As for “CHIPS T53A (from UniProt A6QIG7 29-149) (other; other documents disagree on this pair)”, the pept-ELISA bindn (%) in experiment [1] turned out to be 7%.

Regarding “CHIPS Y48A (from UniProt A6QIG7 29-149) (other; other documents disagree on this pair)”, in experiment [1], the pept-ELISA bindn (%) is 86% and 70%.

On to “CHIPS Y108A (from UniProt A6QIG7 29-149) (other; other documents disagree on this pair)”, for which the pept-ELISA bindn (%) in experiment [1] was found to be 1%.

Take “CHIPS clone 1F8 (Y48H, D83G, L90P), A6QIG7 29-140”: the specific activity (%) in experiment [2] was 93%.

“CHIPS clone 2C9 (K54R, K69R, K100R, K105R), A6QIG7 29-140”: the specific activity (%) in experiment [2] is 115%.

For “CHIPS clone 2D5 (K40E, K69A, N111K, G112V), A6QIG7 29-138”, the specific activity (%) in experiment [2] is 132%.

For the substance “CHIPS clone 2H5 (K69A, K100R, K101R), A6QIG7 29-140”, the specific activity (%) in experiment [2] stood at 113%.

Take “CHIPS clone 3C4 (K69A, G112V), A6QIG7 29-139”: the specific activity (%) in experiment [2] is 94%.

As to “CHIPS clone 3H1 (G112V) (from UniProt A6QIG7 29-139) (other; other documents disagree on this pair)”, in experiment [2], the specific activity (%) worked out at 109%.

For the substance CHIPS clone 4E5 (K69T), A6QIG7 29-140, the specific activity (%) in experiment [2] came out at 76%.

Regarding CHIPS clone 5H1 (K50N), A6QIG7 29-140, the specific activity (%) in experiment [2] was determined as 88%.

For CHIPS clone 6E1 (S104Y), A6QIG7 29-140, the specific activity (%) in experiment [2] is 76%.

For the substance “CHIPS clone 7B3 (N111I) (from UniProt A6QIG7 29-140) (other; other documents disagree on this pair)”, in experiment [2], the specific activity (%) stood at 140%.

As for “CHIPS clone 7E4 (K40N, K92R), A6QIG7 29-140”, the specific activity (%) in experiment [2] is 65%.

As to “CHIPSwt control (lysate) (from UniProt A6QIG7 29-149) (other; other documents disagree on this pair)”, in experiment [1], the Abs 492 nm was 1.48 and 1.41; the Pep. bind. was 155 ng/mL and 126 ng/mL; the Pep. bind. Log (ng/ml) is 2.19 log ng/ml and 2.1 log ng/ml; the Spec. activity pep/expr (%) was 119% and 106%. In experiment [1], this substance showed a pept-ELISA bindn (%) of 21%. The specific activity (%) in experiment [2] stood at 106%.

“Chemotaxis Inhibitory Protein of Staphylococcus aureus (CHIPS), wildtype, amino acids 1-121 (from UniProt A6QIG7 29-149)” came in with a Dual bind PMN (%) in experiment [3] of 112%. Also, the Binding U937cells C5aR (0.3 µg/ml) % of wt 1-112 in experiment [4] is 28%. This substance also returned an IC50 (read off the curve) in experiment [5] of 0.07 ng/mL.
